Assay: Stability of the kit components after storage
Assay type: physicochemical
Conditions: 14 days storage
Text: The mechanical properties (storage and loss moduli G′ and G″) are identical at D0, D7 or D21 storage.
The activity of the enzyme AMG was preserved after 14 days storage allowing a long term storage of the kit components.

glucan 1,4 α-glucosidase [AMG]
activity of the enzyme after storage: preserved

Reference: patent US9931433B2, “Time-controlled glucose releasing hydrogels and applications thereof” (Centre National de la Recherche Scientifique (CNRS), priority 2014, dated 2018)
